The values below come from publication PMC9929655 (The Journal of Cell Biology, 2023).

The labels stand for the following.
B3: GST-Exo84 (aa 1–326) (domain or fragment)
chain: MVEFSLKKARNNWKHVKKSASSPAKQKTPPSPAKPKQKTKKNPYSDLKDPATSYTLPTINARERSRVATSMQRRLSIHNTNYAPPTLDYSMPLPDMPNMIVPNDNVDSSHNNSSFTTENESVSSKGPSNSLNLSTADLSLNDSSYNKVPARSAMRNTVNPSGSNDPFNNSTSLRKMLANPHFNAKDFVHDKLGNASAITIDKFTSNLTDLSIQVQEEVKLNINKSYNEIMTVNNDLNVAMLELKRVRANINDLNEVLDQCTKIAEKRLQLQDQIDQERQGNFNNVESHSNSPALLPPLKAGQNGNLMRRDRSSVLILEKFWDTELD

Common to all, as to assay: pull-down
The target of the assay “GST-Exo84 (aa 1–326)” is B3.
For assay [1], the target named is His-tagged Exo84 (aa 1–326) (S. cerevisiae, UniProt P38261 1-326).
For the next assay, the target named is T1, Sro7 (full length) (yeast, UniProt Q12038 1-1033).
T1 sequence: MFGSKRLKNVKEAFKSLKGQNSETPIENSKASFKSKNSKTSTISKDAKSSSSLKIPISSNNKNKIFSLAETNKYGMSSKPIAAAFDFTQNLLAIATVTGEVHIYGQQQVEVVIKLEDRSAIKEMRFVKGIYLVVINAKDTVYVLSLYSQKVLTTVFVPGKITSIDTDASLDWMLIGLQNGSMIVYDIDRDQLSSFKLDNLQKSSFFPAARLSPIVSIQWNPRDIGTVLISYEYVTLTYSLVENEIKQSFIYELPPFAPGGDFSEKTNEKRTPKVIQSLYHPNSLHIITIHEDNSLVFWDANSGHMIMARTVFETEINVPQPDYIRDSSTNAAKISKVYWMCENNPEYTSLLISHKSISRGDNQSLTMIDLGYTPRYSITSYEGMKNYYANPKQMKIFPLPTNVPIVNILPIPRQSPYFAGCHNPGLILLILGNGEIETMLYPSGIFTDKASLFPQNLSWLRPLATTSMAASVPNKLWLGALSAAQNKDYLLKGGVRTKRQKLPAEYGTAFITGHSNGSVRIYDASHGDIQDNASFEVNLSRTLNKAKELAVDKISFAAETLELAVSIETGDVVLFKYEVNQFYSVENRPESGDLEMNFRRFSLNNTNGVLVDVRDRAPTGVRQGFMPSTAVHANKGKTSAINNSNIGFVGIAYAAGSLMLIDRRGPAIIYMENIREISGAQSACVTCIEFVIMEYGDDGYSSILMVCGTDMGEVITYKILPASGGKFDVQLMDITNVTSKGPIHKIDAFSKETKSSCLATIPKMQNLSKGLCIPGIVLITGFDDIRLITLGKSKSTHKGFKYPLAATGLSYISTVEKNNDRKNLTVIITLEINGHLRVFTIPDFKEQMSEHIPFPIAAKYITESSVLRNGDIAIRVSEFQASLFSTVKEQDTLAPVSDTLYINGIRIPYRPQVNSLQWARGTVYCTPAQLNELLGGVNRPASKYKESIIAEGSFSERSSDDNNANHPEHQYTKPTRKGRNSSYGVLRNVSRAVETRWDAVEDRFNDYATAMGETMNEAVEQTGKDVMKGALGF

B1: His-tagged Sro7-NT (aa 1–90) (domain or fragment)
chain: MFGSKRLKNVKEAFKSLKGQNSETPIENSKASFKSKNSKTSTISKDAKSSSSLKIPISSNNKNKIFSLAETNKYGMSSKPIAAAFDFTQN
Take B1: the binding result in the assay with GST-Exo84 (aa 1–326) is listed as “binds”.

B2: C-terminally tagged GST-Sro7-NT (aa 1–79) (domain or fragment)
chain: MFGSKRLKNVKEAFKSLKGQNSETPIENSKASFKSKNSKTSTISKDAKSSSSLKIPISSNNKNKIFSLAETNKYGMSSK
In the case of B2, the binding result in assay [1] is reported as “binds”.

As for B3, the binding result with Sro7 (full length) is “binds”.
